Assay [1] concerns the target T1, human thyroglobulin (TG) (human, UniProt P01266 20-2768).
T1 construct: whole, on cells; the tag is not described
As to the kind of experiment: flow cytometry of surface TG (anti-histidine antibody) on 293T; HLA-DRB1*01:03.

Assay [2] has as its target T2, human β2-glycoprotein I (β2-GPI) (human, UniProt P02749 20-345).
T2 construct: whole, on cells
T2 sequence (looked up): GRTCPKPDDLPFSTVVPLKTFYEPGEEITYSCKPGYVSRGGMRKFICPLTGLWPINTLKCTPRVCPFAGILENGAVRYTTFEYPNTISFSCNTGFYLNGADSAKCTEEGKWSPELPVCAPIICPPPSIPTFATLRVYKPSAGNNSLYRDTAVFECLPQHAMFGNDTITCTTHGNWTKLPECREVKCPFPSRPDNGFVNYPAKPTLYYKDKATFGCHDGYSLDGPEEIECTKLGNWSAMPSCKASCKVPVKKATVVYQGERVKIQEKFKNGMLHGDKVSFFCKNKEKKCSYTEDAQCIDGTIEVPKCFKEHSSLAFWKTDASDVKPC
As to the kind of experiment: flow cytometry of surface β2-GPI on 293T; HLA-DRB1*01:03. For orientation: A flow cytometer gives signals particle by particle.

For assay [3], the target named is T2, human β2-glycoprotein I (β2-GPI). As to the kind of experiment: flow cytometry of surface β2-GPI on 293T cells (β2-GPI+HLA-DR4). The protocol:
The HLA-DRA*01:01 vector as an α-chain expression vector, the HLA-DRB1*04:04 vector as a β-chain expression vector, the β2-GPI vector, and the GFP vector were introduced to 293T cells, and the 293T cells were cultured. The cultured cells were reacted with an anti-β2-GPI antibody or an anti-cardiolipin antibody (aCL), and further reacted with the APC-labeled anti-human IgG antibody. Then, GFP-positive cells were subjected to flow cytometry analysis in the same manner as in Example 1A. As Control 1, the analysis was performed in the same manner, except that only the β2-GPI expression vector was introduced. As Control 2, the analysis was performed in the same manner, except that only the GFP vector was introduced. [0219] anti-β2-GPI antibody: polyclonal antibody, available from Atlas antibodies [0220] human anti-cardiolipin antibody: Clone EY2C9, supplied by Professor Atsumi, School of Medicine in Hokkaido University. Reference was made to the following paper: Ichikawa, K., M. A. Khamashta, T. Koike, E. Matsuura, and G. R. V. Hughes. 1994. P2-Glycoprotein I reactivity of monoclonal anticardiolipin antibodies from patients with the antiphospholipid syndrome. Arthritis Rheum. 37: 1453.

For assay [4] the target is unchanged. As to the kind of experiment: flow cytometry of surface β2-GPI on 293T; HLA-DRB1*04:06.
Assay [5] has the same target. The assay is described as follows: flow cytometry of surface β2-GPI on 293T; HLA-DRB1*08:03.
For assay [6] the target is unchanged. As to the kind of experiment: flow cytometry of surface β2-GPI on 293T; HLA-DRB1*10:01.
The target is the same in assay [7]. The assay is described as follows: flow cytometry of surface β2-GPI on 293T; HLA-DRB1*11:01.
For assay [8] the target is unchanged. The assay is described as follows: flow cytometry of surface β2-GPI on 293T; HLA-DRB1*01:01.
The target is the same in assay [9]. As to the kind of experiment: flow cytometry of surface β2-GPI on 293T; HLA-DRB1*08:01.
Assay [10] has the same target. As to the kind of experiment: flow cytometry of surface β2-GPI on 293T; HLA-DRB1*07:01.
Assay [11] has the same target. As to the kind of experiment: flow cytometry of surface β2-GPI on 293T; HLA-DRB1*04:01.
The target is the same in assay [12]. The assay is described as follows: flow cytometry of surface β2-GPI on 293T; HLA-DRB1*03:01.
Assay [13] shares this target. The assay is described as follows: flow cytometry of surface β2-GPI on 293T; HLA-DRB1*04:03.
The target is the same in assay [14]. As to the kind of experiment: flow cytometry of surface β2-GPI on 293T; HLA-DRB1*04:02.
Assay [15] shares this target. As to the kind of experiment: flow cytometry of surface β2-GPI on 293T; HLA-DRB1*09:01.
For assay [16] the target is unchanged. As to the kind of experiment: flow cytometry of surface β2-GPI on 293T; HLA-DRB1*04:05.

T1 sequence (P01266 20-2768): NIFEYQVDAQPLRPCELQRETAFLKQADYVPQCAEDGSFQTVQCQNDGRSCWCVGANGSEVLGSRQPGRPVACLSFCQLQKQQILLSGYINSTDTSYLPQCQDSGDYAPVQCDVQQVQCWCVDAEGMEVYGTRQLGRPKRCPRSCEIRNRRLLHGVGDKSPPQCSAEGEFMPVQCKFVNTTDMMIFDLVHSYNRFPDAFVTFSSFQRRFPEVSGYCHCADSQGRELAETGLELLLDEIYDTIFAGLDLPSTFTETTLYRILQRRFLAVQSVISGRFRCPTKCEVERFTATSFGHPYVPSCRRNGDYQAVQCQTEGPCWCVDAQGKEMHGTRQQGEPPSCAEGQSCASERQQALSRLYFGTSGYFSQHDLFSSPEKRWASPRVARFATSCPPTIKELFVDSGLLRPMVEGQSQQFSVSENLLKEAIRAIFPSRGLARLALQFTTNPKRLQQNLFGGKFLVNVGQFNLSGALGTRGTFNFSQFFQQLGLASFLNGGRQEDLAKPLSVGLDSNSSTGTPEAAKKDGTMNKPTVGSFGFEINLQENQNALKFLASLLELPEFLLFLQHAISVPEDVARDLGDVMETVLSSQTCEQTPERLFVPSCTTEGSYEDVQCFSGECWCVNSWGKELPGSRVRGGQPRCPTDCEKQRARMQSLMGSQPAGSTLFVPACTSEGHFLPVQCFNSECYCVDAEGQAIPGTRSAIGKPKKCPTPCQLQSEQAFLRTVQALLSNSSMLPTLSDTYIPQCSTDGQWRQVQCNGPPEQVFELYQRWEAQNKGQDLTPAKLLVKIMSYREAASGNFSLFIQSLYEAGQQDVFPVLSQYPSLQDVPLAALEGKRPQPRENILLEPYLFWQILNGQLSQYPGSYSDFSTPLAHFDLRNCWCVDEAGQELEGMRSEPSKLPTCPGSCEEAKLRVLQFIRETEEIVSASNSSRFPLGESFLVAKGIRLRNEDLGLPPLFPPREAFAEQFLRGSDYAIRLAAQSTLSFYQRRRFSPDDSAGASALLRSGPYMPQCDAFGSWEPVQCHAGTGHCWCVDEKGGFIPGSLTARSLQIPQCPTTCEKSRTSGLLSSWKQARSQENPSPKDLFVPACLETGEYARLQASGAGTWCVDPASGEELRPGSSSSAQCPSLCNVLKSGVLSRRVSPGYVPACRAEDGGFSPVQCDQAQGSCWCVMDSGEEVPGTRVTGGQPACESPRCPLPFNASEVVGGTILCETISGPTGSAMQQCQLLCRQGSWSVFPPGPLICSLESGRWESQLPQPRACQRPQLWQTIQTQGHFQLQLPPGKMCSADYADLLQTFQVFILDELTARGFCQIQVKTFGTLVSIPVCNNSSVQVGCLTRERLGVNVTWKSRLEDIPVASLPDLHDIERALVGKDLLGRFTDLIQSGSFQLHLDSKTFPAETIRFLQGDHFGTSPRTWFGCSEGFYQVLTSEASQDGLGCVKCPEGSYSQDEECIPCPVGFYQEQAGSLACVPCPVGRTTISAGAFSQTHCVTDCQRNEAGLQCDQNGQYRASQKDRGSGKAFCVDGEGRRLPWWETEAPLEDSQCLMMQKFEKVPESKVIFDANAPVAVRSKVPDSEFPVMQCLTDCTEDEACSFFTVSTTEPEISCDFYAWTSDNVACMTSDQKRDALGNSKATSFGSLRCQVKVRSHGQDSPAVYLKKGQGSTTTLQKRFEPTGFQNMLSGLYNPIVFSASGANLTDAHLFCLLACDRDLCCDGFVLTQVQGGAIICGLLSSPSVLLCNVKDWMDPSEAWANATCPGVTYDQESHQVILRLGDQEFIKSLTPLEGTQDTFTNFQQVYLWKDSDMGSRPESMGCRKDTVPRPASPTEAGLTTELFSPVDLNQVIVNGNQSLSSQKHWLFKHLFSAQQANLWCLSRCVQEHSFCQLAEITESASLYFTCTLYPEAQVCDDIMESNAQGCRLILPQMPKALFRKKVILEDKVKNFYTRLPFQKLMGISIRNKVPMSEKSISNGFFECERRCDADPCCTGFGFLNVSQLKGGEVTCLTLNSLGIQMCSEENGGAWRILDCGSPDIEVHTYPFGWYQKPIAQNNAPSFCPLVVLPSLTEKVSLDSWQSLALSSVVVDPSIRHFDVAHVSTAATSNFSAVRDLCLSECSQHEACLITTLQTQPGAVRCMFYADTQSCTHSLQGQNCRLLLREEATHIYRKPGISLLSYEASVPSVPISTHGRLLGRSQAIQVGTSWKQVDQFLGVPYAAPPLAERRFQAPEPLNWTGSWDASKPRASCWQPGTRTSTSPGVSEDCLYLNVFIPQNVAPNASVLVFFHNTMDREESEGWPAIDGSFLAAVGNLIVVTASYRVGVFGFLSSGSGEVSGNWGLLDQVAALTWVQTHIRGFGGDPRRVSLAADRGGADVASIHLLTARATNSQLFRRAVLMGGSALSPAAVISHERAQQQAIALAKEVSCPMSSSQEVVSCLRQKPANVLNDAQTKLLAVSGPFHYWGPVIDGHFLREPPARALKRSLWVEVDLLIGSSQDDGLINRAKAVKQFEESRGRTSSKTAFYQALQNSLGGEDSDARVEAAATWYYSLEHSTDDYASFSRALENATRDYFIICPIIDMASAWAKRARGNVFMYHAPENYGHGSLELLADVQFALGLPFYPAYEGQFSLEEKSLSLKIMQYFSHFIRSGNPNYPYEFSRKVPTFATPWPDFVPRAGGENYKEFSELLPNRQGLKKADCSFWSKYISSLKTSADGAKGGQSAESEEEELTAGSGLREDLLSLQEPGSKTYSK

B1: HLA-DR (HLA-DRA*01:01/HLA-DRB1*01:03) (other, human)
MHC II alpha: not shown
MHC II beta: not shown
notes: whole, on cells
With B1, the binding result in assay [1] and in assay [2] was “binds” in each case.

B2: HLA-DR (HLA-DRA*01:01/HLA-DRB1*04:04) (other, human)
MHC II alpha: not shown
MHC II beta: not shown
notes: whole, on cells; also called HLA-DR4; HLA-DR0404
Take B2: the binding result in [3] is recorded as “binds”.

B3: HLA-DR (HLA-DRA*01:01/HLA-DRB1*04:06) (other, human)
MHC II alpha: not shown
MHC II beta: not shown
notes: whole, on cells
Turning to B3, the binding result in assay [4] was “binds”.

B4: HLA-DR (HLA-DRA*01:01/HLA-DRB1*08:03) (other, human)
MHC II alpha: not shown
MHC II beta: not shown
notes: whole, on cells
Consider B4, for which, in assay [5], the binding result is “binds”.

B5: HLA-DR (HLA-DRA*01:01/HLA-DRB1*10:01) (other, human)
MHC II alpha: not shown
MHC II beta: not shown
notes: whole, on cells
In the case of B5, the binding result in assay [6] is “binds”.

B6: HLA-DR (HLA-DRA*01:01/HLA-DRB1*11:01) (other, human)
MHC II alpha: not shown
MHC II beta: not shown
notes: whole, on cells
Take B6: the binding result in assay [7] is given as “binds”.

B7: HLA-DR (HLA-DRA*01:01/HLA-DRB1*01:01) (other, human)
MHC II alpha: not shown
MHC II beta: not shown
notes: whole, on cells; also called HLA-DR1; HLA-DR0101
For B7, the binding result in [8] is “binds”.

B8: HLA-DR (HLA-DRA*01:01/HLA-DRB1*08:01) (other, human)
MHC II alpha: not shown
MHC II beta: not shown
notes: whole, on cells
Turning to B8, the binding result in assay [9] was “binds”.

B9: HLA-DR (HLA-DRA*01:01/HLA-DRB1*07:01) (other, human)
MHC II alpha: not shown
MHC II beta: not shown
notes: whole, on cells; also called HLA-DR7; APS susceptible HLA-DR7
B9: the binding result in assay [10] was “binds”.

B10: HLA-DR (HLA-DRA*01:01/HLA-DRB1*04:01) (other, human)
MHC II alpha: not shown
MHC II beta: not shown
notes: whole, on cells
In the case of B10, the binding result in assay [11] is on record as “binds”.

B11: HLA-DR (HLA-DRA*01:01/HLA-DRB1*03:01) (other, human)
MHC II alpha: not shown
MHC II beta: not shown
notes: whole, on cells; also called HLA-DR3
As for B11, in assay [12], the binding result is reported as “binds”.

B12: HLA-DR (HLA-DRA*01:01/HLA-DRB1*04:03) (other, human)
MHC II alpha: not shown
MHC II beta: not shown
notes: whole, on cells
Take B12: the binding result in assay [13] is listed as “binds”.

B13: HLA-DR (HLA-DRA*01:01/HLA-DRB1*04:02) (other, human)
MHC II alpha: not shown
MHC II beta: not shown
notes: whole, on cells
On to B13, for which the binding result in assay [14] is recorded as “binds”.

B14: HLA-DR (HLA-DRA*01:01/HLA-DRB1*09:01) (other, human)
MHC II alpha: not shown
MHC II beta: not shown
notes: whole, on cells
As to B14, the binding result in assay [15] is “binds”.

B15: HLA-DR (HLA-DRA*01:01/HLA-DRB1*04:05) (other, human)
MHC II alpha: not shown
MHC II beta: not shown
notes: whole, on cells
Take B15: in assay [16], the binding result is “binds”.

These data come from US20170176432A1 (OSAKA UNIVERSITY, published 2017).
